US20200164069A1 (BOSTON PHARMACEUTICALS, published 2020)

T1: IL-4 (UniProt P05112 25-153)
T1 sequence (looked up): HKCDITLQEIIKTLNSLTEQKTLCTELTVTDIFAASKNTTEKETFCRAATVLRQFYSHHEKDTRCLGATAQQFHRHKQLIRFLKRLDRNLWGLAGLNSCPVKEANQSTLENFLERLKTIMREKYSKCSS

T2: IL-7 (UniProt P13232 26-177)
T2 sequence (looked up): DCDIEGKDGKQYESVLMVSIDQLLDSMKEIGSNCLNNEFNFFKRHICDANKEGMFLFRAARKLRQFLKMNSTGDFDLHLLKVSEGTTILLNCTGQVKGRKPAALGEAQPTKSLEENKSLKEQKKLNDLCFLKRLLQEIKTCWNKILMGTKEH


Legend:
[1] = target: IL-21 (species not stated in the assay) (Homo sapiens (Human), UniProt Q9HBE4 25-162, Biotinylated in the competition ELISA of paragraph 259 (sites not given); unlabelled in the other results.); assay: cell-based or functional assay
IL-21 (species not stated in the assay), sequence (Q9HBE4 25-162 limits assumed): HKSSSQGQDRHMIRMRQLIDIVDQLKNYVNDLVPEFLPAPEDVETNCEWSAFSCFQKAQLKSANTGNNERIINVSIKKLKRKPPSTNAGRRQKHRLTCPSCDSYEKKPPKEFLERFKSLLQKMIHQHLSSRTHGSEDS

recombinant human IL-21 [2] = target: T3, recombinant human IL-21 (human, UniProt Q9HBE4 30-162, limits assumed); assay: cell-based or functional assay
T3 sequence (Q9HBE4 30-162 limits assumed, form in doubt): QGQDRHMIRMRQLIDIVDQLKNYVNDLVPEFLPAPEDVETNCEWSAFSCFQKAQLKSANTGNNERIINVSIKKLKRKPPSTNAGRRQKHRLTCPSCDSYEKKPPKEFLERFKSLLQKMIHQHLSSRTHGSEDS

[3] = target: T4, recombinant cynomolgus monkey IL-21 (cynomolgus monkey (Macaca fascicularis), UniProt Q9HBE4 30-162 (human entry), limits assumed); assay: cell-based or functional assay
T4 sequence (Q9HBE4 other isoform, or with tags, fused parts or gaps limits assumed): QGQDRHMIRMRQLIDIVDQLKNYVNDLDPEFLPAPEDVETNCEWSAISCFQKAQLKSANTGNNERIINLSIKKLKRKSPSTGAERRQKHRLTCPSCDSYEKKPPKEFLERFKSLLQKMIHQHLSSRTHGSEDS

recombinant human IL-21 [4] = target: T3, recombinant human IL-21; assay: cell-based or functional assay; remark: listed apart in the source
[5] = target: T4, recombinant cynomolgus monkey IL-21; assay: cell-based or functional assay; remark: listed apart in the source
recombinant human IL-21 [6] = target: T3, recombinant human IL-21; assay: cell-based or functional assay; remark: listed apart in the source
[7] = target: T4, recombinant cynomolgus monkey IL-21; assay: cell-based or functional assay; remark: listed apart in the source
IL-2 = IL-2 (UniProt P60568 21-153); assay: ELISA on plate-coated cytokine (2 µg/ml)
IL-2, sequence (P60568 21-153 limits assumed): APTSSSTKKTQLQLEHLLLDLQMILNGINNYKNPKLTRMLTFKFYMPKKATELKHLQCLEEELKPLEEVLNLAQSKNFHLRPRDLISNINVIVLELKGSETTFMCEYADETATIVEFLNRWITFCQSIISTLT
Description: (§1) ELISA was used to test cross reactivity of lead clones. Cytokines tested include 11-2, IL-4, IL-7, IL-9, and IL-15. Maxisorp ELISA plate (NUNC) was coated with 2 μg/ml of different cytokines in PBS at 4° C. overnight. The plate was then blocked with 3% BSA in PBST (PBS+0.1% Tween) at room temperature for one hour. Purified lead clone IgGs were serially diluted in PBST+3% BSA and the mixture was then added to each ELISA plate well and further incubated at room temperature for half an hour. After washing, secondary antibody-HRP was added to each well for 1 hour. Wells were washed first with PBST and then with PBS and the TMB solution from Pierce was added to detect the secondary antibody. After 5′ the reaction was stopped by the addition of 1N sulfuric acid. The plates were then read in an ELISA reader at 450 nm to detect the binding.

IL-4 = target: T1, IL-4; assay: ELISA on plate-coated cytokine (2 µg/ml)
Description: as §1

IL-7 = target: T2, IL-7; assay: ELISA on plate-coated cytokine (2 µg/ml)
Description: as §1

recombinant human IL-21 [8] = target: T3, recombinant human IL-21; assay: method not stated for this clone (Table 2, column Kd hu)
IL-15 = IL-15 (UniProt P40933 49-162); assay: ELISA on plate-coated cytokine (2 µg/ml)
IL-15, sequence (P40933 49-162 limits assumed): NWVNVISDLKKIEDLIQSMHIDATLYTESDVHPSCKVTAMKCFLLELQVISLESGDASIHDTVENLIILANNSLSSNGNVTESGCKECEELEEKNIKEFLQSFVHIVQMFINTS
Description: as §1

recombinant human IL-21 [9] = target: T3, recombinant human IL-21; assay: cell-based or functional assay; remark: listed apart in the source
[10] = target: T4, recombinant cynomolgus monkey IL-21; assay: cell-based or functional assay; remark: listed apart in the source

| Binder | maximal inhibition in pSTAT3 assay [1] [%] | IC50 in pSTAT3 assay (human PBMCs, 20 pM IL-21) (recombinant human IL-21 [2]) [pM] | IC50 in pSTAT3 assay (human PBMCs, 20 pM IL-21) [3] [pM] | IC50 in NK-92 cell assay (IFNγ, 200 pM IL-21) (recombinant human IL-21 [4]) | IC50 in NK-92 cell assay (IFNγ, 200 pM IL-21) [5] | IC50 in PC differentiation assay (2 nM IL-21) (recombinant human IL-21 [6]) [nM] | IC50 in PC differentiation assay (2 nM IL-21) [7] [nM] | binding result (IL-2) | binding result (IL-4) | binding result (IL-7) | Kd (recombinant human IL-21 [8]) [pM] | binding result (IL-15) | IC50 of IL-21-induced proliferation of human naive CD4+ T cells (ATP, day 4) (recombinant human IL-21 [9]) [pM] | inhibition of IgG production by human B cells (recombinant human IL-21 [9]) [%] | inhibition of IgG production by human B cells [10] [%] |
| --- | --- | --- | --- | --- | --- | --- | --- | --- | --- | --- | --- | --- | --- | --- | --- |
| murine monoclonal antibody 9H10 (antibody, V domains shown, also called 9H10.1) VH: EVQLQQFGAEVVKPGASVKMSCKASGYTFTDYNMNWVKQSHEKSLEWIGDIHPKFHSTNYNQKFKGKATLTIDTSSSTAYMELRNLTSEDTAVYYCARVGNYVYFVMDYWGQGTSVTVSS VL: SIVMTQTPKFLLVSAGDRVTITCKASQSVSNDVAWYQQKPGQSPKLLIYYASNRYTGVPDRFSGSGYGTDFTFTISTVQAEDLAVYFCQQDYTSPWTFGGGTKLEIK | 100 | 328 | 160 | 20.2 nM | 3.43 nM | 116 | 29.8 | no binding | no binding | no binding | 108 | – | – | – | – |
| murine monoclonal antibody 8B6 (antibody, V domains shown, also called 8B6.1) VH: EVQLVESGGGSVKPGGSLKLSCAASGLTFSHYYMYWVRQTPEKRLEWVAIISDGGDYTHYSDSVKGRFTISRDNAKNNLYLQMSSLQSEDTAMYYCAGDYGYGYEGWFAYWGQGTLVTVST VL: DIVMTQSQKFMSTSVGDRVSVTCKASQNVDTYVAWYQQKPGQSPKALIYSTSYRYSGVPDRFTGSGSGTDFTLTISNVQSEDLAEYFCQQYNSYPWTFGGGTKLEIK | 100 | 115 | 228 | 944 pM | 771 pM | > 200 | 8.9 | no binding | no binding | no binding | – | no binding | – | – | – |
| murine monoclonal antibody 19E3 (antibody, V domains shown, also called 19E3.1) VH: QVQLQQPGSELVMPGASVKMSCKASGYIFTDYWMHWVKQRPGQGLEWIGTIDPSDNYTIYSQNFKGKATLTVDESSSTAYMLLSSLTSEDSAVYFCARYGFAMDYWGQGTSVTVSS VL: DIQLTQTTSSLSASLGDRVTISCRASQDISNFLNWYQQTPDGTVKLLIYYTSRLHSGVPSRFSGSGSGTDYSLTISNLEQEDIATYFCQQGHTLPRTFGGGTKLEIK | 100 | 3.15 | 5.99 | 41 pM | 37 pM | 1.53 | 0.775 | no binding | no binding | no binding | – | – | 61 | > 99 | > 99 |
| 9F11-4 (antibody, IgG1, V domains shown) VH: EVQLVESGGGLVQPGGSLRLSCAASGFTFSDAWMDWVRQAPGKGLEWVAEIRSEADNHPTYYAESVKGRFTISRDDSKNSLYLQMNSLKTEDTAVYYCTEYDYEGFVHWGQGTLVTVSS VL: DIVMTQTPLSLSVTPGQPASISCRASKSVSTYGYSYMHWYLQKPGQPPQLLIYLASNLESGVPDRFSGSGSGTDFTLKISRVEAEDVGVYYCQHSRELPLTFGQGTKLEIK | 100 | 12.1 | 52.2 | – | – | – | – | – | – | – | – | – | – | – | – |
| 9F11-11 (antibody, IgG1, V domains shown) VH: EVQLVESGGGLVQPGGSLRLSCAASGFTFSDAWMDWVRQAPGKGLEWVAEIRSEADNHPTYYAESVKGRFTISRDDSKNSLYLQMNSLKTEDTAVYYCTEYDYEGFVHWGQGTLVTVSS VL: DIVLTQTPLSLSVTPGQPASISCRASKSVSTYGYSYMHWYLQKPGQPPQLLIYLASNLESGVPDRFSGSGSGTDFTLKISRVEAEDVGVYYCQHSRELPLTFGQGTKLEIK | 100 | 13.6 | 45.9 | – | – | – | – | – | – | – | – | – | – | – | – |
| 9F11-6 (antibody, IgG1, V domains shown) VH: EVQLVESGGGLVQPGGSLRLSCAASGFTFSDAWMDWVRQAPGKGLEWVAEIRSEADNHPTYYAESVKGRFTISRDDSKNSVYLQMNSLKTEDTAVYYCTEYDYEGFVHWGQGTLVTVSS VL: DIVMTQTPLSLSVTPGQPASISCRASKSVSTYGYSYMHWYLQKPGQPPQLLIYLASNLESGVPDRFSGSGSGTDFTLKISRVEAEDVGVYYCQHSRELPLTFGQGTKLEIK | 100 | 13.2 | 50.8 | – | – | – | – | – | – | – | – | – | – | – | – |
| K44VHa6-N56Q (antibody, IgG1, V domains shown) VH: QVQLVQSGAEVKKPGASVKVSCKASGYTFTDYWMHWVRQAPGQGLEWMGTIDPSDQYTIYSQNFKGRVTMTVDESTSTVYMELSSLRSEDTAVYYCARYGFAMDYWGQGTLVTVSS VL: DIQLTQSPSSLSASVGDRVTITCRASQDISNFLNWYQQKPGKAVKLLIYYTSRLHSGVPSRFSGSGSGTDYTLTISSLQPEDFATYYCQQGHTLPRTFGGGTKVEIKR | 100 | 5.5 | 9.75 | 54.8 pM | 60.3 pM | 0.573 | 0.659 | no binding | no binding | no binding | 0.245 | – | – | – | – |
| K2Ha-N56Q (antibody, human IgG1, kappa, V domains shown) VH: QVQLVQSGAEVKKPGASVKVSCKASGYTFTDYWMHWVRQAPGQGLEWMGTIDPSDQYTIYSQNFKGRVTMTRDTSTSTVYMELSSLRSEDTAVYYCARYGFAMDYWGQGTLVTVSS VL: DIQLTQSPSSLSASVGDRVTITCRASQDISNFLNWYQQKPGKAVKLLIYYTSRLHSGVPSRFSGSGSGTDYTLTISSLQPEDFATYFCQQGHTLPRTFGGGTKVEIKR | 100 | 18.7 | 15.6 | 99 pM | 83.4 pM | 0.618 | 1.32 | no binding | no binding | no binding | 0.403 | – | – | – | – |
